Patent US20030095962A1, “Chimeric cell-surface receptors that undergo antigen-induced association” (priority 1997, published 2003)

Biological target: hen egg lysozyme (hen) (UniProt P00698)
Assay: cell-based or functional assay

pair of chimeric receptor polypeptides: HyHEL-10 VH fused to mouse erythropoietin receptor (pME-VHER) and HyHEL-10 VL fused to mouse erythropoietin receptor (pME-VLER), expressed on Ba/F3 cells (from, sequence (P14753 146-507, change not shown): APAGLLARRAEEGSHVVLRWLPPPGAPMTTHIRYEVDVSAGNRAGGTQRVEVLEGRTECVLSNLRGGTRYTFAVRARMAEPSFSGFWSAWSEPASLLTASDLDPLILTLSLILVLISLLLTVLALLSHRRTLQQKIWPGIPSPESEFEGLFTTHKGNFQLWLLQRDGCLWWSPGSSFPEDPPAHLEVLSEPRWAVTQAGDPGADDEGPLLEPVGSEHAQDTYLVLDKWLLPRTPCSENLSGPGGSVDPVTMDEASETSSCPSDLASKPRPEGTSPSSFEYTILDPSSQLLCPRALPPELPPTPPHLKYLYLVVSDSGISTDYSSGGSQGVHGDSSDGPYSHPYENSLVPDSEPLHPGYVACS
pair of chimeric receptor polypeptides: HyHEL-10 VH fused to mouse erythropoietin receptor (pME-VHER) and HyHEL-10 VL fused to mouse erythropoietin receptor (pME-VLER), expressed on Ba/F3 cells (from, sequence (P14753 146-507, change not shown): as above
hen egg lysozyme (hen), sequence (P00698 19-147): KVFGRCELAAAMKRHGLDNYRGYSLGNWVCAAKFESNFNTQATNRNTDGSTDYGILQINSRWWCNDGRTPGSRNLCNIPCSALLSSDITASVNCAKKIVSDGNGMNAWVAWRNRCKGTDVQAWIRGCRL

cell proliferation of Clone G8 cultured with different constant amounts of HEL over a 5-day period (times the rate): > 5
lowest HEL concentration giving accelerated cell growth: 5 ng/mL
Substance: pair of chimeric receptor polypeptides: HyHEL-10 VH fused to mouse erythropoietin receptor (pME-VHER) and HyHEL-10 VL fused to mouse erythropoietin receptor (pME-VLER), expressed on Ba/F3 cells (from UniProt P14753 146-507; P14753 146-507)
